Experimental findings from the supplement of paper PMC11246515 are described below.

± gives the standard deviation of the averaged measurements.

The data set can be described thus: total protein half-life in vivo (active degradation + dilution); higher = more stable protein.
Setting [1] is: E. coli NCM3722 delta-clpP delta-lon delta-hslV, growth: N-lim chemostat, doubling time 6 h.
[2] abbreviates: E. coli NCM3722 delta-clpP, growth: N-lim chemostat, doubling time 6 h.
The mark [3] stands for this setting: E. coli NCM3722 delta-hslV, growth: N-lim chemostat, doubling time 6 h.
[4] abbreviates: E. coli NCM3722 delta-lon, growth: N-lim chemostat, doubling time 6 h.
Where [5] appears, read: E. coli NCM3722 delta-smpB, growth: N-lim chemostat, doubling time 6 h.
The mark [6] stands for this setting: wild type E. coli NCM3722, growth: C-lim chemostat, doubling time 6 h.
The mark [7] stands for this setting: wild type E. coli NCM3722, growth: C-lim chemostat, doubling time 12 h.
The mark [8] stands for this setting: wild type E. coli NCM3722, growth: N-lim chemostat, doubling time 6 h.
Where [9] appears, read: wild type E. coli NCM3722, growth: N-lim chemostat, doubling time 12 h.
Where [10] appears, read: wild type E. coli NCM3722, growth: P-lim chemostat, doubling time 6 h.
Setting [11] is: wild type E. coli NCM3722, growth: P-lim chemostat, doubling time 12 h.
The mark [12] stands for this setting: wild type E. coli NCM3722, growth: C-lim chemostat, doubling time 3 h.

In the case of “MRSIARRTAVGAALLLVMPVAVWISGWRWQPGEQSWLLKAAFWVTETVTQPWGVITHLILFGWFLWCLRFRIKAAFVLFAILAAAILVGQGVKSWIKDKVQEPRPFVIWLEKTHHIPVDEFYTLKRAERGNLVKEQLAEEKNIPQYLRSHWQKETGFAFPSGHTMFAASWALLAVGLLWPRRRTLTIAILLVWATGVMGSRLLLGMHWPRDLVVATLISWALVAVATWLAQRICGPLTPPAEENREIAQREQES [P0A924]”, the “total protein half-life in vivo” value by setting is: under setting [1], 6.18 ± 0.47 h; under setting [2], 7.12 ± 0.17 h; under setting [3], 7.17 h; under setting [4], 5.52 ± 0.8 h; under setting [5], 5.95 ± 0.56 h; under setting [6], 6.009 ± 0.045 h. The “total protein half-life in vivo” value under setting [7] was 14.4 ± 1.7 h; the “total protein half-life in vivo” value under setting [8] was 6.36 ± 0.65 h; the “total protein half-life in vivo” value under setting [9] stood at 11.9 ± 0.65 h; the “total protein half-life in vivo” value under setting [10] was 6.14 ± 0.54 h; the “total protein half-life in vivo” value under setting [11] amounted to 10.7 ± 2 h.

On to “MPANARSHAVLTTESKVTIRGQTTIPAPVREALKLKPGQDSIHYEILPGGQVFMCRLGDEQEDHTMNAFLRFLDADIQNNPQKTRPFNIQQGKKLVAGMDVNIDDEIGDDE”, for which the “total protein half-life in vivo” value is 5.19 ± 0.069 h under setting [1]; 2.83 ± 0.037 h under setting [2]; 3.29 ± 0.22 h under setting [3]; 2.97 ± 0.61 h under setting [4]; 2.88 ± 0.047 h under setting [5]; greater than 4 h under setting [12]. Further, the “total protein half-life in vivo” value reads like this: under setting [6], 3.52 ± 0.75 h; under setting [7], 5.13 ± 1.2 h; under setting [8], 3.11 ± 0.63 h; under setting [9], 5.02 ± 0.3 h; under setting [10], 2.77 ± 0.39 h; under setting [11], 5.24 ± 0.056 h.

For “MSKIVKIIGREIIDSRGNPTVEAEVHLEGGFVGMAAAPSGASTGSREALELRDGDKSRFLGKGVTKAVAAVNGPIAQALIGKDAKDQAGIDKIMIDLDGTENKSKFGANAILAVSLANAKAAAAAKGMPLYEHIAELNGTPGKYSMPVPMMNIINGGEHADNNVDIQEFMIQPVGAKTVKEAIRMGSEVFHHLAKVLKAKGMNTAVGDEGGYAPNLGSNAEALAVIAEAVKAAGYELGKDITLAMDCAASEFYKDGKYVLAGEGNKAFTSEEFTHFLEELTKQYPIVSIEDGLDESDWDGFAYQTKVLGDKIQLVGDDLFVTNTKILKEGIEKGIANSILIKFNQIGSLTETLAAIKMAKDAGYTAVISHRSGETEDATIADLAVGTAAGQIKTGSMSRSDRVAKYNQLIRIEEALGEKAPYNGRKEIKGQA [P0A6P9]”, the “total protein half-life in vivo” value was determined as 5.56 ± 0.57 h under setting [1]; 5.57 ± 0.75 h under setting [2]; 4.86 ± 0.065 h under setting [3]; 4.95 ± 0.37 h under setting [4]; 4.634 ± 0.024 h under setting [5]; 3.19 ± 0.15 h under setting [12]. In addition, the “total protein half-life in vivo” value stood at 5.95 ± 0.21 h under setting [6]; 12.831 ± 0.01 h under setting [7]; 5.06 ± 0.19 h under setting [8]; 8.35 ± 0.29 h under setting [9]; 5.52 ± 0.69 h under setting [10]; 11.3 ± 0.84 h under setting [11].

As to “MGTTKHSKLLILGSGPAGYTAAVYAARANLQPVLITGMEKGGQLTTTTEVENWPGDPNDLTGPLLMERMHEHATKFETEIIFDHINKVDLQNRPFRLNGDNGEYTCDALIIATGASARYLGLPSEEAFKGRGVSACATCDGFFYRNQKVAVIGGGNTAVEEALYLSNIASEVHLIHRRDGFRAEKILIKRLMDKVENGNIILHTNRTLEEVTGDQMGVTGVRLRDTQNSDNIESLDVAGLFVAIGHSPNTAIFEGQLELENGYIKVQSGIHGNATQTSIPGVFAAGDVMDHIYRQAITSAGTGCMAALDAERYLDGLADAK [P0A9P4]”, the “total protein half-life in vivo” value under setting [1] is 4.04 ± 0.12 h; the “total protein half-life in vivo” value under setting [2] stood at 3.95 ± 0.56 h; the “total protein half-life in vivo” value under setting [3] came out at 3.57 ± 0.13 h; the “total protein half-life in vivo” value under setting [4] is 3.954 ± 0.035 h; the “total protein half-life in vivo” value under setting [5] was found to be 3.71 ± 0.12 h; the “total protein half-life in vivo” value under setting [12] came out at 3.16 ± 0.09 h. Moreover, the “total protein half-life in vivo” value was determined as 5.74 ± 0.6 h under setting [6]; 10.2 ± 1.8 h under setting [7]; 3.8 ± 0.19 h under setting [8]; 6.33 ± 0.39 h under setting [9]; 5.05 ± 0.65 h under setting [10]; 10.7 ± 0.32 h under setting [11].

Take “MTVAYIAIGSNLASPLEQVNAALKALGDIPESHILTVSSFYRTPPLGPQDQPDYLNAAVALETSLAPEELLNHTQRIELQQGRVRKAERWGPRTLDLDIMLFGNEVINTERLTVPHYDMKNRGFMLWPLFEIAPELVFPDGEMLRQILHTRAFDKLNKW”: the “total protein half-life in vivo” value under setting [2] stood at 4.02 h; the “total protein half-life in vivo” value under setting [3] turned out to be 4.41 h; the “total protein half-life in vivo” value under setting [4] was determined as 4.82 h; the “total protein half-life in vivo” value under setting [12] is 3.22 ± 0.3 h; the “total protein half-life in vivo” value under setting [7] turned out to be 10.3 h; the “total protein half-life in vivo” value under setting [8] was 3.76 h. The “total protein half-life in vivo” value by setting is: under setting [10], 5.3 h; under setting [11], 10.7 h.

As to “MIRISDAAQAHFAKLLANQEEGTQIRVFVINPGTPNAECGVSYCPPDAVEATDTALKFDLLTAYVDELSAPYLEDAEIDFVTDQLGSQLTLKAPNAKMRKVADDAPLMERVEYMLQSQINPQLAGHGGRVSLMEITEDGYAILQFGGGCNGCSMVDVTLKEGIEKQLLNEFPELKGVRDLTEHQRGEHSYY”, the “total protein half-life in vivo” value under setting [1] came to 4.529 ± 0.0069 h; the “total protein half-life in vivo” value under setting [2] turned out to be 3.82 ± 0.32 h; the “total protein half-life in vivo” value under setting [3] is 2.533 ± 0.019 h; the “total protein half-life in vivo” value under setting [4] was 2.97 ± 0.2 h; the “total protein half-life in vivo” value under setting [5] amounted to 2.54 ± 0.25 h; the “total protein half-life in vivo” value under setting [12] turned out to be 2.32 ± 0.16 h. Further, the “total protein half-life in vivo” value under setting [6] turned out to be 3.4 ± 0.13 h; the “total protein half-life in vivo” value under setting [7] was determined as 5.07 ± 0.12 h; the “total protein half-life in vivo” value under setting [8] is 2.55 ± 0.36 h; the “total protein half-life in vivo” value under setting [9] came to 3.63 ± 0.19 h; the “total protein half-life in vivo” value under setting [10] stood at 3.01 ± 0.56 h; the “total protein half-life in vivo” value under setting [11] was 6.09 ± 0.23 h.

Turning to “MSTPRQILAAIFDMDGLLIDSEPLWDRAELDVMASLGVDISRRNELPDTLGLRIDMVVDLWYARQPWNGPSRQEVVERVIARAISLVEETRPLLPGVREAVALCKEQGLLVGLASASPLHMLEKVLTMFDLRDSFDALASAEKLPYSKPHPQVYLDCAAKLGVDPLTCVALEDSVNGMIASKAARMRSIVVPAPEAQNDPRFVLADVKLSSLTELTAKDLLG”, the “total protein half-life in vivo” value is, setting by setting: under setting [1], 4.76 ± 0.9 h; under setting [2], 5.14 ± 0.84 h; under setting [3], 4.544 ± 0.045 h; under setting [4], 5.444 ± 0.011 h; under setting [5], 4.27 ± 0.18 h; under setting [12], 2.99 ± 0.3 h. The “total protein half-life in vivo” value reads like this: under setting [6], 5.48 ± 0.35 h; under setting [7], 12.1 ± 3 h; under setting [8], 4.47 ± 0.14 h; under setting [9], 8.91 ± 1.3 h; under setting [10], 5.65 ± 0.52 h; under setting [11], 12.3 ± 0.28 h.
